# Assay results taken from patent publication US20070015242.
# Target: recombinant NC1 fragment of type XVIII collagen (UniProt P39061)
# Chain of UniProt P39061 (P39061 whole entry, looked up, the tested form may be a part): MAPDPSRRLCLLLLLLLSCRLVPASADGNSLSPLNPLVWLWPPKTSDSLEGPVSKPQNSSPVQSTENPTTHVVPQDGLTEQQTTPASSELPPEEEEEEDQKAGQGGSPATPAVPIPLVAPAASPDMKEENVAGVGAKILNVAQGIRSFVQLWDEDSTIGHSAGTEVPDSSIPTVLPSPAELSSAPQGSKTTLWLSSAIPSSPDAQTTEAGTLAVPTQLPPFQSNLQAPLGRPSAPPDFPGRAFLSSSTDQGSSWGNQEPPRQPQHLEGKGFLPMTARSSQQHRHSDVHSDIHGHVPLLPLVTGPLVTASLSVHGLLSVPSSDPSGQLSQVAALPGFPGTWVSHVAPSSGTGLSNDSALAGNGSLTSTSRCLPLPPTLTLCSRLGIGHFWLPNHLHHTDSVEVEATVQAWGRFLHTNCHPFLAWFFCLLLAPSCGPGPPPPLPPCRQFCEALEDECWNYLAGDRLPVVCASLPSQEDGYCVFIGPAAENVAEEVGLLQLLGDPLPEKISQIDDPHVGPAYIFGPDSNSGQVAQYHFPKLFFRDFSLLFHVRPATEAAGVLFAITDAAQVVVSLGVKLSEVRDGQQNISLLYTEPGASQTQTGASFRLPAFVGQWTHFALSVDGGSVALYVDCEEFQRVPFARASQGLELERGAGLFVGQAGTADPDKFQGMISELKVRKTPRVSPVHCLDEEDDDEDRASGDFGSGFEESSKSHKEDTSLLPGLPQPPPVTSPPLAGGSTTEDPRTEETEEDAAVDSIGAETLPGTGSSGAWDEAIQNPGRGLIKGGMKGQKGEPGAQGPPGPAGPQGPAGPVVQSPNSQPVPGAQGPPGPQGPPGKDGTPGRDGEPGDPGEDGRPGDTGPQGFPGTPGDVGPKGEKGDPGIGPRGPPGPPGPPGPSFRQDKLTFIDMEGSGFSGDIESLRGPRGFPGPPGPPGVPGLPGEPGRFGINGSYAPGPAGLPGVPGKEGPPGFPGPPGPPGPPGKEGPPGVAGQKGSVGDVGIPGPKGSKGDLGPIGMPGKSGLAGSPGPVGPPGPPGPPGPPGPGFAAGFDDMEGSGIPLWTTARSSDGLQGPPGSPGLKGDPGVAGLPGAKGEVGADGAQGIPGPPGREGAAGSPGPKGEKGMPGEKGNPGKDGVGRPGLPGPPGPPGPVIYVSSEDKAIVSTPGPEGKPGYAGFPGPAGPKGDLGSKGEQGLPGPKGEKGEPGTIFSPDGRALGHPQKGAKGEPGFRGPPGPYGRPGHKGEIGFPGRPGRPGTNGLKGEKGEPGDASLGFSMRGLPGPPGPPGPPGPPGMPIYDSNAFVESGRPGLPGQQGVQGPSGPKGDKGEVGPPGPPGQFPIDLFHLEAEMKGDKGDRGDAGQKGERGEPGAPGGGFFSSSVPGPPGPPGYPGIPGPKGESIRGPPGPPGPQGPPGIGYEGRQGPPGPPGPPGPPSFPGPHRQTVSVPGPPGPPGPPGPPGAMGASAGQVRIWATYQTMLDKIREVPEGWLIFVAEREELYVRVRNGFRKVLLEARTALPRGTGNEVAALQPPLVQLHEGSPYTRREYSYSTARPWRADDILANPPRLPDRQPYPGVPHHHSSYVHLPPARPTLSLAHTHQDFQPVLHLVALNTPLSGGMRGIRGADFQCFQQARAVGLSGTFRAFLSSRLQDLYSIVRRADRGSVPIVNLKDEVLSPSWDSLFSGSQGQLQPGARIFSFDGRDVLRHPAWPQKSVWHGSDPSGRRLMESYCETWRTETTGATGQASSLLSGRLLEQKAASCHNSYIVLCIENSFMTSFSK
# Chain of matrix metalloproteinase-2 (MMP-2), active enzyme (P08253 110-660): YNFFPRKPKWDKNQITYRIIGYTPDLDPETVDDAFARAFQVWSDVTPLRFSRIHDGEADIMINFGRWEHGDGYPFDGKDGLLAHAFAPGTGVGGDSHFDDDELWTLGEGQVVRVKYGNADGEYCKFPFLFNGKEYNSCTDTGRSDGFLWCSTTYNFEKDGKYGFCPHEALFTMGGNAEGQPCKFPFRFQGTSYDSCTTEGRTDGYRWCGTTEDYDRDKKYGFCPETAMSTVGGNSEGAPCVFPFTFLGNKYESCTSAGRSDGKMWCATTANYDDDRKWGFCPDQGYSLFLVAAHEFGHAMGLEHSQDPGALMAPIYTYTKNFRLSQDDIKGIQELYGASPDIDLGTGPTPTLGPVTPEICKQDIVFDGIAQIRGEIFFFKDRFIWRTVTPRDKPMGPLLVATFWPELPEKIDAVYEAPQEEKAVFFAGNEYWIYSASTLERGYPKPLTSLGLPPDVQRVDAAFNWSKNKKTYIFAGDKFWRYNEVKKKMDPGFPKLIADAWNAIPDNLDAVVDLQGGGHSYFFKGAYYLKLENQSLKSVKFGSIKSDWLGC
Molecule,cleavage of recombinant NC1 fragment (Western blot of degradation products),"cleavage of NC1 fragments at pH 5.5, 6.5 and 7.5 (gel)"
"matrix metalloproteinase-9 (MMP-9), active enzyme","Treatment of the recombinant NC1 fragment of type XVIII collagen with MMP-2 or -9, similar to control, did not produce NC1 degradation products",–
"matrix metalloproteinase-2 (MMP-2), active enzyme","Treatment of the recombinant NC1 fragment of type XVIII collagen with MMP-2 or -9, similar to control, did not produce NC1 degradation products",–
"matrix metalloproteinase-14 (MMP-14), active enzyme","MMP-7 and MMP-14 cleaved the recombinant NC1 fragment to produce neostatin-7, neostatin-14 and several endostatin-containing fragments",–
"matrix metalloproteinase-7 (matrilysin, MMP-7), active enzyme (enzyme, UniProt P09237 95-267, looked up, species assumed, APMA-activated) Matrilysin: YSLFPNSPKWTSKVVTYRIVSYTRDLPHITVDRLVSKALNMWGKEIPLHFRKVVWGTADIMIGFARGAHGDSYPFDGPGNTLAHAFAPGTGLGGDAHFDEDERWTDGSSLGINFLYAATHELGHSLGMGHSSDPNAVMYPTYGNGDPQNFKLSQDDIKGIQKLYGKRSNSRKK","MMP-7 and MMP-14 cleaved the recombinant NC1 fragment to produce neostatin-7, neostatin-14 and several endostatin-containing fragments","the cleavage of collagen XVIII/NC1 by MMP-7 is pH sensitive, and proceeds less efficiently at more acidic pH"
